Assay [1] deals with T1, human C3d (human, UniProt P01024 1002-1303).
T1 construct: domain: C3d
Description: cross reactivity, ELISA on C3d, anti-His detection.

Assay [2] deals with T2, cynomolgus complement C3b protein (cynomolgus monkey (Macaca fascicularis)).
T2 construct: also called cyno C3b; cynoC3b
The assay is described as follows: SPR (Biacore), C3b captured by anti-C3d antibody, Fab as analyte. In general terms: In SPR one partner is held on a chip, and binding of the other changes the refractive index at the surface.

For assay [3], the target named is T3, human complement C3b protein (human, UniProt P01024 23-667; P01024 749-1663).
T3 construct: Purified plasma C3b (Complement Technology, Quidel); Depending on the assay it was captured by an anti-C3d antibody, coated, biotinylated or coupled to beads; also called human C3b; huC3b
T3 sequence (P01024 23-667 P314L, chain 1 of 2): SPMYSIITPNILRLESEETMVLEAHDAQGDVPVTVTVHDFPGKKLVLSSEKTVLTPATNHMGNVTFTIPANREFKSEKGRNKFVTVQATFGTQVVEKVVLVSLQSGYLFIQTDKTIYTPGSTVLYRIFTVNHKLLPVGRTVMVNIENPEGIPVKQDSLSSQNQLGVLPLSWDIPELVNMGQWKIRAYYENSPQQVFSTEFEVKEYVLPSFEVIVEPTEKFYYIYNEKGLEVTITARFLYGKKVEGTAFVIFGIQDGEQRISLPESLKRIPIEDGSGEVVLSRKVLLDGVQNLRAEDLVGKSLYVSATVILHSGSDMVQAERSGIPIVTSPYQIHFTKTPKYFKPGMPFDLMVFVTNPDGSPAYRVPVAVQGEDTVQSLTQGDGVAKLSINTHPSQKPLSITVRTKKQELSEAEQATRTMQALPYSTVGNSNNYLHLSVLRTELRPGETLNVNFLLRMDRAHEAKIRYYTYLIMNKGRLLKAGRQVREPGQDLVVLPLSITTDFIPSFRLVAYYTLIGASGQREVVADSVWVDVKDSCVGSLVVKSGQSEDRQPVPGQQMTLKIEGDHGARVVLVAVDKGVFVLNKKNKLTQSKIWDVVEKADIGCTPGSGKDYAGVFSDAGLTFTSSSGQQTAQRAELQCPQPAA
T3 sequence (P01024 749-1663, chain 2 of 2): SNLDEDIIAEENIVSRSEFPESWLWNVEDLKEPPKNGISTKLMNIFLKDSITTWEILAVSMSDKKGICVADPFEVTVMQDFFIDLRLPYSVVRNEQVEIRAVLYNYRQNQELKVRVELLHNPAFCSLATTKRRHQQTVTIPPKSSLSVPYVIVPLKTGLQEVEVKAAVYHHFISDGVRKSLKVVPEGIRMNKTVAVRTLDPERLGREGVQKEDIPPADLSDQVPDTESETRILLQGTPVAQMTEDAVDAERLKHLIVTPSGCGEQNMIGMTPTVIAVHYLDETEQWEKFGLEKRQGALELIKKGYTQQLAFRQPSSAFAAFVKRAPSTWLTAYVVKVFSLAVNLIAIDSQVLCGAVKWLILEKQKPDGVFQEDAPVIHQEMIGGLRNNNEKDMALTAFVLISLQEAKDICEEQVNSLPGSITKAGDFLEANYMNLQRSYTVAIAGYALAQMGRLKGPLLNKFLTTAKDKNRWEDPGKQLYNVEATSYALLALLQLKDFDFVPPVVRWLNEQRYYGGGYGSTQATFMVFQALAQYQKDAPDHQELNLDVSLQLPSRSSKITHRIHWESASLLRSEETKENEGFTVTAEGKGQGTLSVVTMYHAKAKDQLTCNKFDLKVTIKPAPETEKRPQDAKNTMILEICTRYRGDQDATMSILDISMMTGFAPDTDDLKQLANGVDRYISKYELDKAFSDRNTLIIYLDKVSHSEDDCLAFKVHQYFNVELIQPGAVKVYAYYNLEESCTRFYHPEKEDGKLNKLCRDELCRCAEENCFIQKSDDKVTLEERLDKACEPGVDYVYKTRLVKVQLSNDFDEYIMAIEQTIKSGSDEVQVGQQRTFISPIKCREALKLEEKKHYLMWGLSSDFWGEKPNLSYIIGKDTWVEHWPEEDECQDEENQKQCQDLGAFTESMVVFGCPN
The description is as above.

Assay [4] concerns the target T4, human C5 (human, UniProt P01031 19-673; P01031 678-1676).
T4 construct: Captured by an anti-C5 antibody in the ELISA
The assay is described as follows: cross reactivity, capture ELISA with anti-C5 capture antibody, anti-His detection. In general terms: An ELISA detects its analyte on a solid surface through an enzyme-linked reagent.

Assay [5] concerns the target T2, cynomolgus complement C3b protein. The assay is described as follows: solution equilibrium titration (SET), ECL detection, Fab.
Assay [6] has as its target T3, human complement C3b protein. Described as above.
The target in assay [7] is T2, cynomolgus complement C3b protein. Description: cell-based or functional assay.
Assay [8] has as its target T3, human complement C3b protein. Description: cell-based or functional assay.
For assay [9], the target named is T2, cynomolgus complement C3b protein. Description: SPR (Biacore T100), C3b captured by anti-C3d antibody, IgG as analyte, 1:1 model.
For assay [10], the target named is T3, human complement C3b protein. The assay is described as above.
The target is the same in assay [11].
For assay [12] the target is unchanged. The assay is described as follows: AlphaScreen bead proximity, C3b-Acceptor beads pre-incubated with antibody, then biotinylated fB(D24G/N260D) and SA-Donor beads; blocked ligand: fB [A]. On the technique in general: In Alpha technology, singlet oxygen from a donor bead excites a nearby acceptor bead.
Assay [13] shares this target. Description: cell-based or functional assay. This is another data set of the same source.
Assay [14] deals with T1, human C3d. Description: C3d binding ELISA, IgG titrated from about 0.006 to 100 nM.
Assay [15] concerns the target T3, human complement C3b protein. The assay is described as follows: AlphaScreen bead proximity, C3b-Acceptor beads pre-incubated with antibody, then C3b-Donor beads; inhibition of C3b-C3b dimer formation; unit from the axis [Antibody] nM [D]. The method, then:
In brief, purified C3b and fP were conjugated to unconjugated acceptor or donor beads (PerkinElmer) using AminoLink Reductant (Pierce) during a 48 h incubation at room temperature. Beads were quenched using Carboxymethoxylamine Hemihydrochloride (Aldrich), and purified by centrifugation at 13000 rpm and three washes with 0.1M TBST. Purified fB(D24G/N260D) and fH were biotinylated during a 30 min incubation with 20-fold molar excess of NHS-Chromogenic-biotin (Pierce) at room temperature, and purified using Zeba 0.5 ml desalting columns (Pierce).
For C3b-C3b and C3b-fP proximity, Fabs or IgGs respectively were pre-incubated with C3b-Acceptor beads (20 μg/ml) for 60 min at room temperature. C3b-Donor beads or fP-Donor beads (20 μg/ml) were then added, and the plate was incubated overnight at room temperature before reading. For C3b-fB and C3b-fH proximity, antibodies were pre-incubated with C3b-Acceptor beads (20 μg/ml) for 60 minutes at room temperature. Biotinylated fB(D24G/N260D) or fH were then added, and incubated for 60 minutes at room temperature. SA-Donor beads were then added (20 μg/ml) and the plate was incubated overnight at room temperature before reading. Plates were read on the BMG Pherastar (ex=680, em=520-620).

For assay [16] the target is unchanged. The assay is described as follows: AlphaScreen bead proximity, C3b-Acceptor beads pre-incubated with antibody, then biotinylated fH and SA-Donor beads; blocked ligand: fH [C].
Assay [17] shares this target. The assay is described as follows: ELISA, C3b captured on coated anti-C3d antibody, antibody titrated (axis: IgG concentration). Here is the method:
The C3b antibodies were examined to determine whether they were selective for binding to C3b relative to the C3b precursor C3. Briefly, binding selectivity for C3b was determined by performing the following steps. Coat Maxisorp plate Nunc (442404) with anti-C3d rabbit monoclonal (abcam 17453) at 2 μg/ml in Carbonate Buffer at 100 μl/well. Seal plates and incubate at 4° C. overnight. Aspirate plates and wash 3 times with PBS/0.5% Tween 20. Block plates with Diluent (PBS, 4% BSA Fraction V (Fisher ICN16006980), 0.1% Tween 20 (Sigma P1379), 0.1% Triton X-100 (Sigma P234729)) and incubate for 2 h at room temperature or overnight at 4° C. Then wash plates once with PBS/0.5% Tween 20. Dilute purified C3b (complement technologies A114 lot 21) and C3 (complement technologies A113c) at 1 μg/ml in diluent and plate 100 μl per well. Incubate for 1 h at room temperature. Then wash 3 times with PBS/0.5% Tween 20.
Dilute Fabs at 100 nM and subsequent dilutions (or higher concentration) in diluent and plate 100 μl per well. Incubate at room temperature for 1 h. Wash plates 3 times with PBS/0.5% Tween 20. Add 100 μl/well of anti-Histidine-HRP monoclonal detection antibody at 1:400 in diluent and incubate at room temperature for 1 h. Then wash 4 times with PBS/0.5% Tween 20. […] Add 50 μl of Stop solution (2N Sulfuric Acid) to each well and read plate at 450 nm and correct for plastic reading at 570 nm.

Some results are limits rather than exact numbers.

T1 sequence (P01024 1002-1303 limits assumed): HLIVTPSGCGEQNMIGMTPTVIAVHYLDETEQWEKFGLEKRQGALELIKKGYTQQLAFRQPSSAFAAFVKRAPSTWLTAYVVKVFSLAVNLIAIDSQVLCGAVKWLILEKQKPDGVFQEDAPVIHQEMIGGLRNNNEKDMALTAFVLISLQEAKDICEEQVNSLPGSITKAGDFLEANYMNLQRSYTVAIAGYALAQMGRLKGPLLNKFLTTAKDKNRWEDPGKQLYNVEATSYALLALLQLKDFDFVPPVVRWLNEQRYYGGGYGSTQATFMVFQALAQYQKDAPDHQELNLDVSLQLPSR
T4 sequence (P01031 19-673 limits assumed, chain 1 of 2): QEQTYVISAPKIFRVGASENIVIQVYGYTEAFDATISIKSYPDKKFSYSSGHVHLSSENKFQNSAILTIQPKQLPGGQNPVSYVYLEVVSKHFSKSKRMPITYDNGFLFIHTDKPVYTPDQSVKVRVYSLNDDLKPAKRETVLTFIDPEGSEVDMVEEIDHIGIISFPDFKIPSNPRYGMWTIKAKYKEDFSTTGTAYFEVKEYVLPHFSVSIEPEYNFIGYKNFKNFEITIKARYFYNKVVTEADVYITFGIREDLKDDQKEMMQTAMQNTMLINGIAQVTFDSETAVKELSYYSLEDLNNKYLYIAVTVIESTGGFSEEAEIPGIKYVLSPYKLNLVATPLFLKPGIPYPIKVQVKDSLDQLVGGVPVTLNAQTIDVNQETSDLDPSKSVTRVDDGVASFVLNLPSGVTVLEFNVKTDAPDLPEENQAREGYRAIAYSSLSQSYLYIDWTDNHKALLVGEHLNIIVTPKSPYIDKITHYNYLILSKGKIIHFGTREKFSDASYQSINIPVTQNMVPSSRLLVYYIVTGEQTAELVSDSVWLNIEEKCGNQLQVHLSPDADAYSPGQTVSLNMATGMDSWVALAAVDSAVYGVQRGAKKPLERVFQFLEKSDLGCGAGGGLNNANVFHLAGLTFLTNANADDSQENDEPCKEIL
T4 sequence (P01031 678-1676 limits assumed, chain 2 of 2): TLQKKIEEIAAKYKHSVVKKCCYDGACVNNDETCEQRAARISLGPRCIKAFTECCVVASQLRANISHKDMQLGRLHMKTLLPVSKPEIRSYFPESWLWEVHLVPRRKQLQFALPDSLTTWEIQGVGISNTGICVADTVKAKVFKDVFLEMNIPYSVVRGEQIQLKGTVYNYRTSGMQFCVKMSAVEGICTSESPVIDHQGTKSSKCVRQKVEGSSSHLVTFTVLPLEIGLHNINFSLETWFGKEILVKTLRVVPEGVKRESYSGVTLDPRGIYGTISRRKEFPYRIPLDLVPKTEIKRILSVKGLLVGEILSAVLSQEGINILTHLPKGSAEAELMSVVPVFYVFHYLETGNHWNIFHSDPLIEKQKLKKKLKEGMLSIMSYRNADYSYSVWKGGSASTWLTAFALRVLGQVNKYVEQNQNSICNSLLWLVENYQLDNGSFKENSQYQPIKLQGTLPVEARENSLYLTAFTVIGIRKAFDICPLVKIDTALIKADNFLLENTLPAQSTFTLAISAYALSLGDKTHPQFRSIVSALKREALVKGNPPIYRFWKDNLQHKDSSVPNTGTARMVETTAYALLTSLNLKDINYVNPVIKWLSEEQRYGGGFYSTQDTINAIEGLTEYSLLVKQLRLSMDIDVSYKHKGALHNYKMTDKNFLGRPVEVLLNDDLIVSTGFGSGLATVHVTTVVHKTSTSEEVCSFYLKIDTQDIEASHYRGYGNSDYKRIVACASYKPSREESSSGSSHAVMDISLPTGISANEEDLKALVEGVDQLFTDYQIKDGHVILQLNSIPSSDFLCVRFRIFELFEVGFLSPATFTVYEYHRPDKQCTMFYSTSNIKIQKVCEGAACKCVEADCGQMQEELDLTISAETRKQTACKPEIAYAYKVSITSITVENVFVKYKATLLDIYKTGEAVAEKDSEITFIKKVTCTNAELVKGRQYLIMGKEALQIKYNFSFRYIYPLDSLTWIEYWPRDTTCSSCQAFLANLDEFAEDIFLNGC

B1: MOR9610 Fab format (Fab, V domains shown)
VH: EVQLVQSGAEVKKPGSSVKVSCKASGGTFSSYTFSWVRQAPGQGLEWMGNILPIFGDANYAQKFQGRVTITADESTSTAYMELSSLRSEDTAVYYCARNKGAFYYMSTYPSLDVWGQGTLVTVSS
VL: DIQMTQSPSSLSASVGDRVTITCRASQNINYYLNWYQQKPGKAPKLLIYDAFSLQSGVPSRFSGSGSGTDFTLTISSLQPEDFATYYCQQSIAVPPFTFGQGTKVEIK
A word on the Kd: it is the free concentration of one partner at which half of the binding sites on the other are occupied at equilibrium, for simple one-to-one binding. As for B1, the binding result in [1] is given as “no binding”. Besides, in [2], the Kd amounted to 0.07 nM. Binding in assay [3] was characterised by a dissociation constant (Kd) of 0.114 nM. Further, the binding result in [4] is “no binding”. This molecule also displayed a dissociation constant Kd in assay [5] of 0.006 nM. Further, the affinity in assay [6], expressed as Kd, was 0.018 nM. Moreover, in assay [7], the “C3b Dep (nM), cyno serum, IC50” value came to 39 nM; the “HA (nM), 10% cyno serum, IC50” value stood at 64 nM; the “MAC Dep (nM), cyno serum, IC50” value was determined as 18 nM. In assay [8], the “C3a (nM), human, inhibition of C3a generation” value is 66 nM; the “C3b Dep (nM), human serum, IC50” value is 20 nM; the “C5a (nM), human, inhibition of C5a generation” value was 34 nM; the “HA (nM), 10% human serum, IC50” value is 63 nM. Moreover, the “MAC Dep (nM), human serum, IC50” value in [8] is 4 nM.

B2: MOR09556 IgG (antibody, V domains shown)
VH: EVQLVESGGGLVQPGGSLRLSCAASGFTFSSYWMTWVRQAPGKGLEWVSSIKIKPDGYAASVKGRFTISRDNSKNTLYLQMNSLRAEDTAVYYCARLFYQYFARMDYWGQGTLVTVSS
VL: DIQMTQSPSSLSASVGDRVTITCRASQDISNYLNWYQQKPGKAPKLLIYAASNLQSGVPSRFSGSGSGTDFTLTISSLQPEDFATYYCQQYDSYSPTFGQGTKVEIKR
notes: Germlined human IgG1 with leucines 234 and 235 changed to alanines, kappa; also called antibody 9556
A word on the koff: it is the rate constant with which the complex falls apart. Usually kon stands for a measure of how fast the partners come together. As usually defined, the EC50 is the midpoint of the concentration-response curve. One may read the EC50 (read off the curve) as the concentration at which the effect is half-maximal. In [9], B2 displayed a Kd of 0.0102 nM, a koff of 4.67e-05 s⁻¹ and a kon of 4.57e+06 M⁻¹ s⁻¹. In [10], this molecule gave a Kd of 0.0001 nM, a koff of 3.21e-07 s⁻¹ and a kon of 3.21e+06 M⁻¹ s⁻¹. Also, in [11], the “fold binding selectivity for C3b over C3” value was 1000 fold. Besides, the “IC50 (read off the curve)” value in assay [12] was around 0.05 nM. In addition, in assay [13], the “MAC deposition on zymosan, IC50” value was at most 5 nM; the “hemolysis of rabbit red blood cells, 10% human or cynomolgus serum, IC50” value was at most 50 nM; the “inhibition of C3a and C5a generation during hemolysis, IC50” value was at most 50 nM. For the same molecule, the binding result in assay [14] is on record as “no binding (tested: 100 nM)”. The molecule also displayed an EC50 in [15] of 300 nM. Moreover, in [16], the “IC50 (read off the curve)” value is around 0.04 nM. Further, in assay [17], the “EC50 (read off the curve)” value was around 0.08 nM.

For the origin of these results see patent US20100291106A1 (Novartis, published 2010).
